The values below come from patent US20210244815A1 (Genentech, published 2021).

One assay has as its target T1, CD3ε (UniProt P07766 23-126, limits assumed).
T1 construct: The antigen in the Biacore assay is called only 'CD3ε'; also called CD3ε antigen
Description: SPR, Biacore T200, CD3ε immobilized on CM5, Fab injected. The procedure:
The binding affinity of selected Fab variants for CD3ε was measured by SPR with a BIACORE® T200 instrument. Briefly, a series S sensor chip CM5 was activated with 1-ethyl-3-(3-dimethylaminopropyl) carbodiimide (EDC) and N-hydroxysuccinimide (NHS) reagents according to the supplier's instructions, and 5 μg/ml CD3ε in 10 mM sodium acetate (pH4.0) was coupled to achieve 100 response units (RU), except for FC1 (which served as a reference). Unreacted groups were then blocked with 1 M ethanolamine. Next, three-fold serial dilutions of Fab in HBS-P buffer (0.01 M HEPES pH 7.4, 0.15M NaCl, 0.005% surfactant P20) from low (0.02 nM) to high (20 nM) were injected (flow rate: 30 μl/min). The binding responses on Fab were corrected by subtracting of RU from a blank flow cell. The sensorgram was recorded and subject to reference and buffer subtraction before evaluating by BIACORE® T200 Evaluation Software (Version 2.0). Association rates (kₐ) and dissociation rates (kd) were calculated using a simple one-to-one Langmuir binding model. The equilibrium dissociation constant (KD) was calculated as the ratio of kd/kₐ. The binding affinity kinetics were determined for a high-affinity anti-CD3 Fab, 38E4v11, having the heavy chain and light chain variable domain sequences set forth in FIG. 1.
For orientation: In SPR one partner is held on a chip, and binding of the other changes the refractive index at the surface.

For a further assay, the target named is CD3. Description: method not stated.
Sequence of CD3 (P07766 22-207): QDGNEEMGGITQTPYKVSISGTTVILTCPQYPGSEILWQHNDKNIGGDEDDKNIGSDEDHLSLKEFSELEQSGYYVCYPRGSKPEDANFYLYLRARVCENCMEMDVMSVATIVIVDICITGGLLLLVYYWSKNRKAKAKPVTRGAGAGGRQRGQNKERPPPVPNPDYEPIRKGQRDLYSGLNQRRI

T1 sequence (P07766 23-126 limits assumed): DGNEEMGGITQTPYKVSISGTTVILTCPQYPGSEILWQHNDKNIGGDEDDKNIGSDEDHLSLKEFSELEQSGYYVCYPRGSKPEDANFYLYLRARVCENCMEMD

B1: anti-CD3 Fab 38E4v11 (Fab, V domains shown)
VH: EVQLVQSGAEVKKPGASVKVSCKASGFTFTSYYIHWVRQAPGQGLEWIGWIYPENDNTKYNEKFKDRVTITADTSTSTAYLELSSLRSEDTAVYYCARDGYSRYYFDYWGQGTLVTVSS
VL: DIVMTQSPDSLAVSLGERATINCKSSQSLLNSRTRKNYLAWYQQKPGQSPKLLIYWTSTRKSGVPDRFSGSGSGTDFTLTISSLQAEDVAVYYCTQSFILRTFGQGTKVEIK
notes: Tested as a Fab from a mammalian Fab expression construct with a Flag tag (293T cells, purified on an anti-Flag column)
Take B1: the “fold increase in binding affinity relative to parent 38E4v1” value with CD3ε was > 10 fold.

B2: Ly6G6D (40G5c) TDB (bispecific antibody, part only; not given: anti-Ly6G6D arm and constant regions, V domains shown, not shown: another chain or arm of the molecule; a dimerising Fc or GST; small tags and cut ends)
VH: QVQLQQSGPELVKPGASVKISCKASGYTFTNYYIHWVKQRPGQGLEWIGWIYPGDGNTKYNEKFKGKATLTADTSSSTAYMQLSSLTSEDSAVYYCARDSYSNYYFDYWGQGTTLTVSS
VL: DIVMTQSPSSLAVSAGEKVTMSCKSSQSLLNSRTRKNYLAWYQQKPGQSPKLLIYWASTRESGVPDRFTGSGSGTDFTLTISSVQAEDLAVYYCTQSFILRTFGGGTKLEIK
For the molecule B2, the Kd – broadly, the concentration at which binding is half-saturated – in the assay with CD3 amounted to 51 nM.
